T1: GRIP1_2, Q9Y3R0
T1 sequence (Q9Y3R0 145-248, limits assumed, looked up): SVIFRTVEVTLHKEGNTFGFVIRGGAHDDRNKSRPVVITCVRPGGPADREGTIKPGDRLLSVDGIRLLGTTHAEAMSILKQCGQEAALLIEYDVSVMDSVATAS

T2: SNTA1, Q13424
T2 sequence (Q13424 82-180, limits assumed, looked up): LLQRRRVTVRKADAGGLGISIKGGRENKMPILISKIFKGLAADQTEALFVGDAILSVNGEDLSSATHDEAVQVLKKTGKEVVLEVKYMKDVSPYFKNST

T3: CARD11, Q9BXL7
T3 sequence (Q9BXL7 662-765, limits assumed, looked up): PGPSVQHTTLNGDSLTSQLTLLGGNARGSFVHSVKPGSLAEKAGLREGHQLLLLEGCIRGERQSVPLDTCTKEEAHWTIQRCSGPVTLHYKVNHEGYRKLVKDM

T4: SIPA1L2, Q9P2F8
T4 sequence (Q9P2F8 945-1036, limits assumed, looked up): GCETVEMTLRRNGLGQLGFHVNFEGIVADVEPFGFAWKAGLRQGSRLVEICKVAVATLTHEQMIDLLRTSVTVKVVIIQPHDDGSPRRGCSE

T5: NHERF3_3, Q5T2W1
T5 sequence (Q5T2W1 238-333, limits assumed, looked up): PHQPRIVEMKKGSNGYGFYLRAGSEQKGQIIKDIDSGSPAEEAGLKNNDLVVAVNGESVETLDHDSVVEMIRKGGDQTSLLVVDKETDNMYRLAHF

T6: NHERF3_4, Q5T2W1
T6 sequence (Q5T2W1 373-468, limits assumed, looked up): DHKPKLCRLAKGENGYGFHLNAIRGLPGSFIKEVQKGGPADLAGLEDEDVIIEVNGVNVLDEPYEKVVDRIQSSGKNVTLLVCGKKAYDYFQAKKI

T7: HTRA4, P83105
T7 sequence (P83105 378-476, limits assumed, looked up): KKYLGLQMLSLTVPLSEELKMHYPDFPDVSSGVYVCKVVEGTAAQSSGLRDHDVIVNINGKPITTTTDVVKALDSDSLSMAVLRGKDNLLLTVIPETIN

T8: SNTG1, Q9NSN8
T8 sequence (Q9NSN8 52-150, limits assumed, looked up): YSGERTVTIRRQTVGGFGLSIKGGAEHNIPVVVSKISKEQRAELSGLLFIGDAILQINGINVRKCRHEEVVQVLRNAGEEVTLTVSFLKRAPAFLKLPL

T9: PDZD2_2, O15018
T9 sequence (O15018 329-429, limits assumed, looked up): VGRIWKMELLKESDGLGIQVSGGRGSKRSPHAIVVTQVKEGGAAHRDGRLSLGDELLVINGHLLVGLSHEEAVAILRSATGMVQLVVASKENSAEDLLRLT

T10: TJP3_3, O95049
T10 sequence (O95049 375-456, limits assumed, looked up): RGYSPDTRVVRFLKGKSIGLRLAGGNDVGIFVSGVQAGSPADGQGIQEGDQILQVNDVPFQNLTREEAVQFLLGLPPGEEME


Each binder was assayed against GRIP2_3, Q9C0E4 (assay: holdup assay). Settings: plain residues with an end cap or a label only (N-terminal biotin on a linker: ado-ado).
Chain of GRIP2_3, Q9C0E4 (Q9C0E4 238-339): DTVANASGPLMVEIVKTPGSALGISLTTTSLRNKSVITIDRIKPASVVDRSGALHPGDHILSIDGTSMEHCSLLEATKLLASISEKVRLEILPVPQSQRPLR
Design: key: below the threshold = too weak to quantify, mostly under pKd 3.1 to 4

**Q.** Which pKd does the source give for PLATCDETSI [SEMA4F, O95754] here?
**A.** below the threshold

What follows are binders tested against T1, GRIP1_2, Q9Y3R0 (assay: holdup assay). Settings: plain residues with an end cap or a label only (N-terminal biotin on a linker: ado-ado).
Design: key: below the threshold = too weak to quantify, mostly under pKd 3.1 to 4

**Q.** PLATCDETSI [SEMA4F, O95754] was tested. Which pKd did it give?
**A.** below the threshold

The binders below were run against T2, SNTA1, Q13424 (assay: holdup assay). Settings: plain residues with an end cap or a label only (N-terminal biotin on a linker: ado-ado).
Design: key: below the threshold = too weak to quantify, mostly under pKd 3.1 to 4

**Q.** For PLATCDETSI [SEMA4F, O95754], which pKd is on record?
**A.** 4.01

What follows are binders tested against PTPN3, P26045 (assay: holdup assay). Settings: plain residues with an end cap or a label only (N-terminal biotin on a linker: ado-ado).
Chain of PTPN3, P26045 (P26045 505-587): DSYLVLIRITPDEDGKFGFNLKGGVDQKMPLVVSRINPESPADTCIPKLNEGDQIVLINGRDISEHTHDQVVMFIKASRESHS
Design: key: below the threshold = too weak to quantify, mostly under pKd 3.1 to 4

**Q.** Which pKd does the source give for PLATCDETSI [SEMA4F, O95754] here?
**A.** 4.72

What follows are binders tested against T3, CARD11, Q9BXL7 (assay: holdup assay). Settings: plain residues with an end cap or a label only (N-terminal biotin on a linker: ado-ado).
Design: key: below the threshold = too weak to quantify, mostly under pKd 3.1 to 4

**Q.** How did the pKd turn out when PLATCDETSI [SEMA4F, O95754] was run?
**A.** below the threshold

The binders below were run against T4, SIPA1L2, Q9P2F8 (assay: holdup assay). Settings: plain residues with an end cap or a label only (N-terminal biotin on a linker: ado-ado).
Design: key: below the threshold = too weak to quantify, mostly under pKd 3.1 to 4

**Q.** With PLATCDETSI [SEMA4F, O95754] as the binder, how does the pKd read?
**A.** below the threshold

What follows are binders tested against MAGI2_4, Q86UL8 (assay: holdup assay). Settings: plain residues with an end cap or a label only (N-terminal biotin on a linker: ado-ado).
Chain of MAGI2_4, Q86UL8 (Q86UL8 772-865): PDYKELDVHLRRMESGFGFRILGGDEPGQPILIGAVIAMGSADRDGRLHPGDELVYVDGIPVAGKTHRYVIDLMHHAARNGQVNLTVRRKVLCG
Design: key: below the threshold = too weak to quantify, mostly under pKd 3.1 to 4

**Q.** PLATCDETSI [SEMA4F, O95754] was tested. Which pKd did it give?
**A.** below the threshold

These binders were tested against T5, NHERF3_3, Q5T2W1 (assay: holdup assay). Settings: plain residues with an end cap or a label only (N-terminal biotin on a linker: ado-ado).
Design: key: below the threshold = too weak to quantify, mostly under pKd 3.1 to 4

**Q.** With PLATCDETSI [SEMA4F, O95754] as the binder, how does the pKd read?
**A.** below the threshold

Each binder was assayed against LNX1_3, Q8TBB1 (assay: holdup assay). Settings: plain residues with an end cap or a label only (N-terminal biotin on a linker: ado-ado).
Chain of LNX1_3, Q8TBB1 (Q8TBB1 500-596): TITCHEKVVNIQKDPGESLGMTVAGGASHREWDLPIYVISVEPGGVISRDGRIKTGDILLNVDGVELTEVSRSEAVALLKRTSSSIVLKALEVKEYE
Design: key: below the threshold = too weak to quantify, mostly under pKd 3.1 to 4

**Q.** With PLATCDETSI [SEMA4F, O95754] as the binder, how does the pKd read?
**A.** below the threshold

The binders below were run against NHERF4_2, Q86UT5 (assay: holdup assay). Settings: plain residues with an end cap or a label only (N-terminal biotin on a linker: ado-ado).
Chain of NHERF4_2, Q86UT5 (Q86UT5 220-308): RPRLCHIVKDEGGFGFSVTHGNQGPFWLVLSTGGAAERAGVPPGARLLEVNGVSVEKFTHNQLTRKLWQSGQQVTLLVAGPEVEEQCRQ
Design: key: below the threshold = too weak to quantify, mostly under pKd 3.1 to 4

**Q.** For PLATCDETSI [SEMA4F, O95754], which pKd is on record?
**A.** below the threshold

What follows are binders tested against SCRIB_2, Q14160 (assay: holdup assay). Settings: plain residues with an end cap or a label only (N-terminal biotin on a linker: ado-ado).
Chain of SCRIB_2, Q14160 (Q14160 857-960): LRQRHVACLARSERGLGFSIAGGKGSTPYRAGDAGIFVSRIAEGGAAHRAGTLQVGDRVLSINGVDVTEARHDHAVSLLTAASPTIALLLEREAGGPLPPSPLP
Design: key: below the threshold = too weak to quantify, mostly under pKd 3.1 to 4

**Q.** Which pKd does the source give for PLATCDETSI [SEMA4F, O95754] here?
**A.** 4.39

The binders below were run against T6, NHERF3_4, Q5T2W1 (assay: holdup assay). Settings: plain residues with an end cap or a label only (N-terminal biotin on a linker: ado-ado).
Design: key: below the threshold = too weak to quantify, mostly under pKd 3.1 to 4

**Q.** Which pKd does the source give for PLATCDETSI [SEMA4F, O95754] here?
**A.** below the threshold

The binders below were run against GOPC, Q9HD26 (assay: holdup assay). Settings: plain residues with an end cap or a label only (N-terminal biotin on a linker: ado-ado).
Design: key: below the threshold = too weak to quantify, mostly under pKd 3.1 to 4

**Q.** Which pKd does the source give for PLATCDETSI [SEMA4F, O95754] here?
**A.** below the threshold

Each binder was assayed against FRMPD2_1, Q68DX3 (assay: holdup assay). Settings: plain residues with an end cap or a label only (N-terminal biotin on a linker: ado-ado).
Chain of FRMPD2_1, Q68DX3 (Q68DX3 770-861): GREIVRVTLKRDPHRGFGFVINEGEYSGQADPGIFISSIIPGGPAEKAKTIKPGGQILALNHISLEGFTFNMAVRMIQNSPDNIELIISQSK
Design: key: below the threshold = too weak to quantify, mostly under pKd 3.1 to 4

**Q.** For PLATCDETSI [SEMA4F, O95754], which pKd is on record?
**A.** below the threshold

Each binder was assayed against Inadl_5, Q8NI35 (assay: holdup assay). Settings: plain residues with an end cap or a label only (N-terminal biotin on a linker: ado-ado).
Chain of Inadl_5, Q8NI35 (Q8NI35 673-780): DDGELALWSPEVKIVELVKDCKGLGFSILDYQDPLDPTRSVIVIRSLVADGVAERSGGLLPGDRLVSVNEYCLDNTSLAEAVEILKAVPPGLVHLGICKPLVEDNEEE
Design: key: below the threshold = too weak to quantify, mostly under pKd 3.1 to 4

**Q.** Which pKd does the source give for PLATCDETSI [SEMA4F, O95754] here?
**A.** below the threshold

The binders below were run against LDB3, O75112 (assay: holdup assay). Settings: plain residues with an end cap or a label only (N-terminal biotin on a linker: ado-ado).
Chain of LDB3, O75112 (O75112 1-94): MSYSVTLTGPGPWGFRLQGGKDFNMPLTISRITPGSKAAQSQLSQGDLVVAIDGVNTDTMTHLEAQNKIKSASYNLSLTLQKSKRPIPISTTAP
Design: key: below the threshold = too weak to quantify, mostly under pKd 3.1 to 4

**Q.** For PLATCDETSI [SEMA4F, O95754], which pKd is on record?
**A.** below the threshold

Each binder was assayed against T7, HTRA4, P83105 (assay: holdup assay). Settings: plain residues with an end cap or a label only (N-terminal biotin on a linker: ado-ado).
Design: key: below the threshold = too weak to quantify, mostly under pKd 3.1 to 4

**Q.** PLATCDETSI [SEMA4F, O95754] was tested. Which pKd did it give?
**A.** below the threshold

What follows are binders tested against Inadl_6, Q8NI35 (assay: holdup assay). Settings: plain residues with an end cap or a label only (N-terminal biotin on a linker: ado-ado).
Chain of Inadl_6, Q8NI35 (Q8NI35 1058-1167): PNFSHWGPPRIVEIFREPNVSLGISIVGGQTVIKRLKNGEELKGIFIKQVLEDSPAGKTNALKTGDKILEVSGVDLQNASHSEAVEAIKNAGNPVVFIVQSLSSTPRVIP
Design: key: below the threshold = too weak to quantify, mostly under pKd 3.1 to 4

**Q.** PLATCDETSI [SEMA4F, O95754] was tested. Which pKd did it give?
**A.** below the threshold

Each binder was assayed against T8, SNTG1, Q9NSN8 (assay: holdup assay). Settings: plain residues with an end cap or a label only (N-terminal biotin on a linker: ado-ado).
Design: key: below the threshold = too weak to quantify, mostly under pKd 3.1 to 4

**Q.** How did the pKd turn out when PLATCDETSI [SEMA4F, O95754] was run?
**A.** 4.53

What follows are binders tested against PICK1, Q9NRD5 (assay: holdup assay). Settings: plain residues with an end cap or a label only (N-terminal biotin on a linker: ado-ado).
Chain of PICK1, Q9NRD5 (Q9NRD5 17-115): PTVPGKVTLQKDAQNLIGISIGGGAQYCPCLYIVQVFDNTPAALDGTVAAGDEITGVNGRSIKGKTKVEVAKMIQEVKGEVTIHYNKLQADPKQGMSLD
Design: key: below the threshold = too weak to quantify, mostly under pKd 3.1 to 4

**Q.** Which pKd does the source give for PLATCDETSI [SEMA4F, O95754] here?
**A.** below the threshold

These binders were tested against GRIP2_4, Q9C0E4 (assay: holdup assay). Settings: plain residues with an end cap or a label only (N-terminal biotin on a linker: ado-ado).
Chain of GRIP2_4, Q9C0E4 (Q9C0E4 446-548): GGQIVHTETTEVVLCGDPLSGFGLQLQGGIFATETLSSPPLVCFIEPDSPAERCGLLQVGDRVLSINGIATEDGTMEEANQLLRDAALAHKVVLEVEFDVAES
Design: key: below the threshold = too weak to quantify, mostly under pKd 3.1 to 4

**Q.** For PLATCDETSI [SEMA4F, O95754], which pKd is on record?
**A.** below the threshold

What follows are binders tested against DLG2_2, Q15700 (assay: holdup assay). Settings: plain residues with an end cap or a label only (N-terminal biotin on a linker: ado-ado).
Chain of DLG2_2, Q15700 (Q15700 189-283): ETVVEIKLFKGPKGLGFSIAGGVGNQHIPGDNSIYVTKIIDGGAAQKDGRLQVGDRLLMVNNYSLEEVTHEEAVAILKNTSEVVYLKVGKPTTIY
Design: key: below the threshold = too weak to quantify, mostly under pKd 3.1 to 4

**Q.** PLATCDETSI [SEMA4F, O95754] was tested. Which pKd did it give?
**A.** below the threshold

Each binder was assayed against T9, PDZD2_2, O15018 (assay: holdup assay). Settings: plain residues with an end cap or a label only (N-terminal biotin on a linker: ado-ado).
Design: key: below the threshold = too weak to quantify, mostly under pKd 3.1 to 4

**Q.** Which pKd does the source give for PLATCDETSI [SEMA4F, O95754] here?
**A.** 4.47

These binders were tested against CASK, O14936 (assay: holdup assay). Settings: plain residues with an end cap or a label only (N-terminal biotin on a linker: ado-ado).
Chain of CASK, O14936 (O14936 487-570): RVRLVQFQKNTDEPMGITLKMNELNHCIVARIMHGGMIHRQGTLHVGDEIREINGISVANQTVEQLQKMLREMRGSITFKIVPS
Design: key: below the threshold = too weak to quantify, mostly under pKd 3.1 to 4

**Q.** How did the pKd turn out when PLATCDETSI [SEMA4F, O95754] was run?
**A.** below the threshold

These binders were tested against MAGI2_3, Q86UL8 (assay: holdup assay). Settings: plain residues with an end cap or a label only (N-terminal biotin on a linker: ado-ado).
Chain of MAGI2_3, Q86UL8 (Q86UL8 600-682): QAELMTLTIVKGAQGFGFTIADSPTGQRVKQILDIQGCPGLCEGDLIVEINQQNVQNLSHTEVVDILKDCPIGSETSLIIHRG
Design: key: below the threshold = too weak to quantify, mostly under pKd 3.1 to 4

**Q.** How did the pKd turn out when PLATCDETSI [SEMA4F, O95754] was run?
**A.** below the threshold

Each binder was assayed against T10, TJP3_3, O95049 (assay: holdup assay). Settings: plain residues with an end cap or a label only (N-terminal biotin on a linker: ado-ado).
Design: key: below the threshold = too weak to quantify, mostly under pKd 3.1 to 4

**Q.** How did the pKd turn out when PLATCDETSI [SEMA4F, O95754] was run?
**A.** below the threshold

The binders below were run against MAGI2_5, Q86UL8 (assay: holdup assay). Settings: plain residues with an end cap or a label only (N-terminal biotin on a linker: ado-ado).
Chain of MAGI2_5, Q86UL8 (Q86UL8 915-1017): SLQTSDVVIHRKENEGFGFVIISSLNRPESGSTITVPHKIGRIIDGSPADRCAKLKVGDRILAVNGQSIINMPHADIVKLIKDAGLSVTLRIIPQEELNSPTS
Design: key: below the threshold = too weak to quantify, mostly under pKd 3.1 to 4

**Q.** With PLATCDETSI [SEMA4F, O95754] as the binder, how does the pKd read?
**A.** below the threshold

What follows are binders tested against HTRA1, Q92743 (assay: holdup assay). Settings: plain residues with an end cap or a label only (N-terminal biotin on a linker: ado-ado).
Chain of HTRA1, Q92743 (Q92743 360-477): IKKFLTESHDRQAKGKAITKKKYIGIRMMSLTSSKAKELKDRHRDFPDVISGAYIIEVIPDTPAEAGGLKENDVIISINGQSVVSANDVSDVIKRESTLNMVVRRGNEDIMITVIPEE
Design: key: below the threshold = too weak to quantify, mostly under pKd 3.1 to 4

**Q.** How did the pKd turn out when PLATCDETSI [SEMA4F, O95754] was run?
**A.** 3.89

These binders were tested against MAST1, Q9Y2H9 (assay: holdup assay). Settings: plain residues with an end cap or a label only (N-terminal biotin on a linker: ado-ado).
Chain of MAST1, Q9Y2H9 (Q9Y2H9 962-1065): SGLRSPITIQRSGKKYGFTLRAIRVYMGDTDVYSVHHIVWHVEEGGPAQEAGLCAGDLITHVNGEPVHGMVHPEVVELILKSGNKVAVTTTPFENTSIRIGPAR
Design: key: below the threshold = too weak to quantify, mostly under pKd 3.1 to 4

**Q.** Which pKd does the source give for PLATCDETSI [SEMA4F, O95754] here?
**A.** 4.64
